{"source": "patent US12123009B2", "about": "“Methods and compositions for PPO herbicide tolerance in plants” (Monsanto Technology LLC, priority 2015, dated 2024)", "molecules": {"B1": {"name": "H_N10: E. coli wild-type HemG protoporphyrinogen oxidase, SEQ ID NO:4 (SEQ ID NO:13 lacking start methionine) (protein, listed as Escherichia coli)", "chain": "MKTLILFSTRDGQTREIASYLASELKELGIQADVANVHRIEEPQWENYDRVVIGASIRYGHYHSAFQEFVKKHATRLNSMPSAFYSVNLVARKPEKRTPQTNSYARKFLMNSQWRPDRCAVIAGALRYPRYRWYDRFMIKLIMKMSGGETDTRKEVVYTDWEQVANFAREIAHLTDKPTLK"}, "B2": {"name": "Waterhemp: herbicide-sensitive wild-type protoporphyrinogen oxidase from Amaranthus tuberculatus (waterhemp), SEQ ID NO:21; plastid extract in Table 3 (protein, listed as Amaranthus tuberculatus)", "chain": "MGNISEREEPTSAKRVAVVGAGVSGLAAAYKLKSHGLSVTLFEADSRAGGKLKTVKKDGFIWDEGANTMTESEAEVSSLIDDLGLREKQQLPISQNKRYIARDGLPVLLPSNPAALLTSNILSAKSKLQIMLEPFLWRKHNATELSDEHVQESVGEFFERHFGKEFVDYVIDPFVAGTCGGDPQSLSMHHTFPEVWNIEKRFGSVFAGLIQSTLLSKKEKGGENASIKKPRVRGSFSFQGGMQTLVDTMCKQLGEDELKLQCEVLSLSYNQKGIPSLGNWSVSSMSNNTSEDQSYDAVVVTAPIRNVKEMKIMKFGNPFSLDFIPEVTYVPLSVMITAFKKDKVKRPLEGFGVLIPSKEQHNGLKTLGTLFSSMMFPDRAPSDMCLFTTFVGGSRNRKLANASTDELKQIVSSDLQQLLGTEDEPSFVNHLFWSNAFPLYGHNYDSVLRAIDKMEKDLPGFFYAGNHKGGLSVGKAMASGCKAAELVISYLDSHIYVKMDEKTA"}}, "key": {"transgenic maize plants [1]": {"tested_on": "transgenic maize plants", "experiment": "R0 multi-copy transgenic maize S-3100 spray test", "assay_type": "in vivo, maize (LH244)", "text": "For maize in planta testing, immature maize (LH244) embryos were transformed with using Agrobacterium tumefaciens and standard methods known in the art. […] Leaf samples were collected from R0 plants and screened by PCR to determine the number of copies of the transgene inserted into the plant genome. […] Plants containing multiple copies (multi-copy) were sprayed as follows: […]"}, "transgenic maize plants [2]": {"tested_on": "transgenic maize plants", "experiment": "R0 transgenic maize 40 g/ha S-3100 spray test", "assay_type": "in vivo", "text": "H_N60 (SEQ ID NO:3). […] These five constructs had the same promoter plus leader plus intron combination, with two different targeting peptide (TP) sequences, and the same 3′UTR sequence. Leaf samples were taken from the R0 plants and analyzed by PCR to determine the transgene copy number. Single copy plants for up to 12 unique events per construct were transplanted to pots, selfed and outcrossed to generate R1 and F1 seed, respectively, for future testing. Multi-copy plants and extra single copy plants were sprayed with 40 grams/ha 5-3100 at approximately the V5 growth stage and injury ratings were taken 7 days after treatment. The average percent (%) injury for all plants expressing each PPO enzyme and the number of plants that were deemed highly tolerant (less than 10% injury) was noted, where each plant is a unique single or multi-copy transformant."}, "F1 maize": {"tested_on": "F1 maize", "experiment": "Efficacy field trial of F1 maize", "assay_type": "in vivo", "conditions": "F1 transgenic maize greenhouse and field data", "description": "This F1 population was segregating (50% hemizygous and 50% null) and selection for transgenic plants was not conducted prior to injury ratings. The overall average injury ratings for such a population are expected to be higher than a homogenous transgenic population since it is difficult to discern non-transgenic plants from transgenic plants. The trials were conducted at two locations with two replicates and 3 treatments per construct. Non-transgenic maize plants were used as a negative control. The herbicide application treatments were as follows: Treatment 1 was 0.036 lb ai/acre S-3100 applied at V2 followed by (fb) V4 fb V8; Treatment 2: was 0.072 lb ai/acre S-3100 applied at V2 fb V4 fb V8; Treatment 3: was 0.144 lb ai/acre S-3100 applied at V2 fb V4 fb V8. Crop Injury Percent ratings were assessed at the V2 growth stage (CIPV2) and at the V4 growth stage (CIPV4) at 5 to 7 days after treatment (the error V2 and error V4 are half of the least significant difference (LSD)). The crop injury ratings were combined for both locations."}, "soybean plantlets": {"tested_on": "soybean plantlets", "experiment": "High-throughput soybean screening for herbicide tolerance (plantlets)", "assay_type": "in vivo, soybean (A3555)", "design": "key: 0 for poor tolerance, high damage, low green coloration; 1 for some tolerance, average damage, moderate green coloration; 2 for good tolerance, low damage, high green coloration", "conditions": "S-3100 spray five weeks post-transformation, scored day four", "text": "A high-throughput plant transformation and screening method was used to evaluate large numbers of constructs in transgenic plants for herbicide tolerance in early transformation plantlet tissue. This allowed for faster and higher volume screening of construct configurations and PPO enzymes.\nThis permitted the side-by-side comparison of seven different HemG PPO enzymes with thirty-seven different targeting peptides using the same promoter and 3′UTR elements for gene expression. These plant transformation constructs were used to transform soybean excised embryos (germplasm A3555) using A. tumefaciens and standard methods known in the art. Four hundred explants were inoculated for each construct resulting in twelve containers per construct. A sterile PPO herbicide solution was used for herbicide tolerance testing. The herbicide solution consisted of 0.3 g of S-3100 in crop oil concentrate (5.0 mL) and 495 mL of deionized water. This was filtered through a 0.45 micron Nalgene® Rapid-Flow™ Tissue Culture Filter Unit and Surfactant-Free Cellulose Acetate membrane filter unit (VWR, Radnor, PA, USA). The resulting sterile solution was shaken before application.\nAt five weeks post-transformation, four of the twelve plant containers per construct were sprayed with two passes of the sterile PPO herbicide solution. The treated plantlets were then enclosed in the container and received at least 15 hours of light exposure post spray each day for four days. At the end of day four post application of S-3100, the treated plantlets were photographed and scored on a visual scale of green coloration (green coloration was representative of healthy photosynthetic plant tissue as compared to photo-bleached tissue) versus damage. The scoring values were 0 for poor tolerance, high damage, low green coloration; 1 for some tolerance, average damage, moderate green coloration; and 2 for good tolerance, low damage, high green coloration. The scoring for each construct is presented in Table 9, where n.d. indicates the analysis was not conducted."}, "[3]": {"tested_on": "hemG knockout E. coli strain", "assay_type": "cell-based", "conditions": "LB medium plates (heme-free)"}, "[4]": {"tested_on": "hemG knockout E. coli strain", "assay_type": "cell-based", "conditions": "LB liquid medium, acifluorfen (1 mM), flumioxazin (0.5 mM), lactofen (0.5 mM), fomesafen (1 mM), S-3100 (100 uM)"}, "[5]": {"conditions": "40 grams/ha S-3100 at V5, 7 days after treatment, R0 plants"}}}
{"molecule": "B1", "values": [{"measurement": "Average Injury", "setting": "transgenic maize plants [1]; Treatment 1: 5 g/ha S-3100 at V5 followed by 10 g/ha at V7, total 15 g/ha, 7 days after final treatment, H_N10 in construct 6", "value": 28.9, "unit": "%"}, {"measurement": "Average Injury", "setting": "transgenic maize plants [1]; Treatment 2: 10 g/ha S-3100 at V5, 7 days after treatment, H_N10 in construct 16", "value": 24.2, "unit": "%"}, {"measurement": "Average Injury", "setting": "transgenic maize plants [2]; [5]", "value": 39.5, "unit": "%"}, {"measurement": "Highly Tolerant (number of plants with less than 10% injury)", "setting": "transgenic maize plants [2]; [5]", "value": 31}, {"measurement": "injury rates when expressed in transgenic plants (crop tolerance to a PPO herbicide)", "setting": "transgenic maize plants [2]; R0 transgenic maize data", "value": "reduced injury rates"}, {"measurement": "injury rates when expressed in transgenic plants (crop tolerance to a PPO herbicide)", "setting": "F1 maize", "value": "reduced injury rates"}, {"measurement": "coloration score", "setting": "soybean plantlets; TP9", "value": 1}, {"measurement": "coloration score", "setting": "soybean plantlets; TP12", "value": 1}, {"measurement": "coloration score", "setting": "soybean plantlets; TP13", "value": 1}, {"measurement": "coloration score", "setting": "soybean plantlets; TP14", "value": 0}, {"measurement": "coloration score", "setting": "soybean plantlets; TP16", "value": 1}, {"measurement": "coloration score", "setting": "soybean plantlets; TP18", "value": 1}, {"measurement": "coloration score", "setting": "soybean plantlets; TP19", "value": 0}, {"measurement": "coloration score", "setting": "soybean plantlets; TP20", "value": 0}, {"measurement": "coloration score", "setting": "soybean plantlets; TP21", "value": 0}, {"measurement": "coloration score", "setting": "soybean plantlets; TP22", "value": 1}, {"measurement": "coloration score", "setting": "soybean plantlets; TP23", "value": 1}, {"measurement": "coloration score", "setting": "soybean plantlets; TP24", "value": 0}, {"measurement": "coloration score", "setting": "soybean plantlets; TP26", "value": 0}, {"measurement": "coloration score", "setting": "soybean plantlets; TP27", "value": 1}, {"measurement": "coloration score", "setting": "soybean plantlets; TP31", "value": 1}, {"measurement": "coloration score", "setting": "soybean plantlets; TP33", "value": 1}, {"measurement": "coloration score", "setting": "soybean plantlets; TP36", "value": 0}]}
{"molecule": "B2", "values": [{"measurement": "restore growth of the transformed hemG knockout E. coli strain (PPO activity)", "setting": "[3]", "value": "able to restore growth"}, {"measurement": "growth of hemG knockout E. coli strain in the presence of a PPO herbicide", "setting": "[4]", "value": "sensitive"}]}
